Results: article PMC5367257 (RNA Biology, 2017)

How the values were obtained:
[1] = molecular target: His-PABP-Flag (wild-type full-length human poly(A)-binding protein) (human, UniProt P11940 1-636); experiment: pull-down
PABP 2-3 mt = PABP 2-3 mt (human, UniProt P11940 1-175+=[…]+190-636, internal_change); experiment: EMSA
WT PABP = WT PABP (human, UniProt P11940 1-636); experiment: EMSA

Binder | fold increase of binding with eIF4E against without eIF4E [1] [fold] | Kd (PABP 2-3 mt) [nM] | Kd (WT PABP) [nM]
His-eIF4G-N (truncated human eIF4GI, amino acids 42–653, with the PABP- and eIF4E-binding sites) (domain or fragment) NTPSQPRQHFYPSRAQPPSSAASRVQSAAPARPGPAAHVYPAGSQVMMIPSQISYPASQGAYYIPGQGRSTYVVPTQQYPVQPGAPGFYPGASPTEFGTYAGAYYPAQGVQQFPTGVAPTPVLMNQPPQIAPKRERKTIRIRDPNQGGKDITEEIMSGARTASTPTPPQTGGGLEPQANGETPQVAVIVRPDDRSQGAIIADRPGLPGPEHSPSESQPSSPSPTPSPSPVLEPGSEPNLAVLSIPGDTMTTIQMSVEESTPISRETGEPYRLSPEPTPLAEPILEVEVTLSKPVPESEFSSSPLQAPTPLASHTVEIHEPNGMVPSEDLEPEVESSPELAPPPACPSESPVPIAPTAQPEELLNGAPSPPAVDLSPVSEPEEQAKEVTASMAPPTIPSATPATAPSATSPAQEEEMEEEEEEEEGEAGEAGEAESEKGGEELLPPESTPIPANLSQNLEAAAATQVAVSVPKRRRKIKELNKKEAVGDLLDAFKEANPAVPEVENQPPAGSNPGPESEGSGVPPRPEEADETWDSKEDKIHNAENIQPGEQKYEYKSDQWKPLNLEEKKRYDREFLLGFQFIFASMQKPEGLPHISDVVLDKANKTPLRPLD | ~3 | – | –
AAAAAAAAAAAAAAAAAAAAAAAAA (ssRNA) [poly(A)25 RNA] | – | ~6.9 | ~5.9
